Source: FireProtDB (doi:10.1021/bi972642d)

B1: Protein S100-G, P02633 (parent)
chain: MSAKKSPEELKGIFEKYAAKEGDPNQLSKEELKLLLQTEFPSLLKGPSTLDELFEELDKNGDGEVSFEEFQVLVKKISQ

Variants of: B1
Conditions: Bos taurus; pH 7; 25 °C; Urea; CD; Potassium phosphate 10 mM; structure 1IGV; whole UniProt chain shown

| Variant | ddG of mutation (higher = less stable) [kcal/mol] | denaturant m value [kcal/mol/M] | denaturant midpoint (higher = more stable) [M] | unfolding free energy [kcal/mol] |
| --- | --- | --- | --- | --- |
| MSAKKSPEELKGIFEKYAAKEGDPNQLSKEELKLLLQTEFPSLLKGPSTLDELFEELDKNGDGEASFEEFQVLVKKISQ [V65A] | 3.78 | 0.81 | 3.4 | 2.77 |
| MSAKKSPEELKGIFEKYAAKEGDPNQLSKEELKLLLQTEFPSLLKGPSTLDELFEELDKNGDGEGSFEEFQVLVKKISQ [V65G] | 4.35 | 0.86 | 2.6 | 2.2 |
| MSAKKSPEELKGIFEKYAAKEGDPNQLSKEELKLLLQTEFPSLLKGPSTLDELFEELDKNGDGEVSFEEFQVLVKKVSQ [I77V] | 1.53 | 1.15 | 4.4 | 5.02 |
| MSAKKSPEELKGIFEKYAAKEGDPNQLSKEELKLLLQTEFPSLLKGPSTLDELFEELDKNGDGEVSFEEWQVLVKKISQ [F70W] | 2.34 | 0.69 | 6.1 | 4.21 |
| MSAKKSPEELKGIFEKYAAKEGDPNQLSKEELKLLLQTEFPSLLKGPSTLDELFEELDKNGDGEVSFEEAQVLVKKISQ [F70A] | 4.97 | 0.79 | 2 | 1.58 |
| MSAKKSPEELKGIFEKYAAKEGDPNQLSKEEAKLLLQTEFPSLLKGPSTLDELFEELDKNGDGEVSFEEFQVLVKKISQ [L32A] | 2.7 | 1.03 | 3.8 | 3.85 |
| MSAKKSPEEVKGIFEKYAAKEGDPNQLSKEELKLLLQTEFPSLLKGPSTLDELFEELDKNGDGEVSFEEFQVLVKKISQ [L10V] | 2.2 | 1 | 4.3 | 4.35 |
| MSAKKSPEELKGIAEKYAAKEGDPNQLSKEELKLLLQTEFPSLLKGPSTLDELFEELDKNGDGEVSFEEFQVLVKKISQ [F14A] | 4.83 | 0.88 | 2 | 1.72 |
| MSAKKSPEELKGIFEKYAAKEGDPNQLSKEELKLLLQTEFPSLLKGPSTLDELFEELDKNGDGEVSFEEFQVLLKKISQ [V74L] | 1.2 | 0.81 | 6.6 | 5.35 |
| MSAKKSPEELKGIFEKYAAKEGDPNQASKEELKLLLQTEFPSLLKGPSTLDELFEELDKNGDGEVSFEEFQVLVKKISQ [L27A] | 3.73 | 1.03 | 2.7 | 2.82 |
| MSAKKSPEELKGIFEKYAAKEGDPNQGSKEELKLLLQTEFPSLLKGPSTLDELFEELDKNGDGEVSFEEFQVLVKKISQ [L27G] | 4.28 | 1.22 | 1.8 | 2.27 |
